Sequences and labels used below:
B1: SKA0009H-F760mnN17/SKA0009Ls-k0MT//TR01H113-F760mnP17/L0011-k0a (bispecific antibody, human IgG1, kappa, N297A)
heavy 1: QSVEESGGRLVTPGTSLTLTCTVSGIDLSSYGMGWVRQAPGMGLEYIGIIYAAGRTYYASWVKGRFIISKTSTTVDLEMTSLTTEDTATYFCARHGSWYAGMDLWGPGTLVTVSSASTKGPSVFPLAPSSKSTSGGTAALGCLVKDYFPEPVTVSWNSGALTSGVHTFPAVLQSSGLYSLSSVVTVPSSSLGTQTYICNVNHKPSNTKVDKKVEPKSCDKTHTCPPCPAPELRGGPKVFLFPPKPKDTLMISRTPEVTCVVVDVSHEDPEVKFNWYVDGVEVHNAKTKPREEQYASTYRVVSVLTVLHQDWLNGKEYKCKVSNKALPAPIEKTISKAKGQPREPQVYTLPPSREEMTKNQVSLTCLVKGFYPSDIAVEWESNGQPENNYKTTPPYLDSDGSFFLYSKLTVDKSRWQQGNVFSCSVMHEALHNHYTQESLSLSP
light 1: AIEMTQTPSPVSAAVGGTVSINCQASEDIENYFAWYQQKPGQPPKLLIYDASELASGVPSRFSGSGSGTDFTLTISGVQSDDAATYYCQHADYAASSENTFGGGTEVVVKRTVAAPSVFIFPPSDEQLKSGTASVVCLLNNFYPREAKVQWKVDNALQSGNSQESVTEQDSKDSTYSLSSTLTLSKADYEKHKVYACEVTHQGLSSPVTKSFNRGEC
heavy 2: QVQLVESGGGVVQPGGSLRLSCAASGFTFSNAWMHWVRQAPGKGLEWVAQIKDKSQNYATYVAESVKGRFTISRADSKNSIYLQMNSLKTEDTAVYYCRYVHYAAGYGVDIWGQGTTVTVSSASTKGPSVFPLAPSSKSTSGGTAALGCLVKDYFPEPVTVSWNSGALTSGVHTFPAVLQSSGLYSLSSVVTVPSSSLGTQTYICNVNHKPSNTKVDKKVEPKSCDKTHTCPPCPAPELRGGPKVFLFPPKPKDTLMISRTPEVTCVVVDVSHEDPEVKFNWYVDGVEVHNAKTKPREEQYASTYRVVSVLTVLHQDWLNGKEYKCKVSNKALPAPIEKTISKAKGQPREPQVYTLPPSRKEMTKNQVSLTCLVKGFYPSDIAVEWESNGQPENNYKTTPPYLDSDGSFFLYSKLTVDKSRWQQGNVFSCSVMHEALHNHYTQKSLSLSP
light 2: DIVMTQSPLSLPVTPGEPASISCRSSQPLVHSNRNTYLHWYQQKPGQAPRLLIYKVSNRFSGVPDRFSGSGSGTDFTLKISRVEAEDVGVYYCGQGTQVPYTFGQGTKLEIKRTVAAPSVFIFPPSDEQLKSGTASVVCLLNNFYPREAKVQWKVDNALQSGNSQESVTEQDSKDSTYSLSSTLTLSKADYEKHKVYACEVTHQGLSSPVTKSFNRGEC
notes: Bispecific IgG made by mixing two homomers under 2-MEA reduction; also called anti-silent Fc antibody; silent Fc×CD3
B2: YG55H-F760mnN17GK/YG55L-k0//TR01H113-F760mnP17GK/L0011-k0a (bispecific antibody, human IgG1, kappa, N297A)
heavy 1: QSLEESGGRLVTPGGSLTLTCTVSGIDLSNYAVGWVRQAPGKGLEYIGIIYASGSAYYASWAKGRFTISKTSSTTVDLKVTSLTTEDTATYFCARGYGRAFRIWGPGTLVTVSSASTKGPSVFPLAPSSKSTSGGTAALGCLVKDYFPEPVTVSWNSGALTSGVHTFPAVLQSSGLYSLSSVVTVPSSSLGTQTYICNVNHKPSNTKVDKKVEPKSCDKTHTCPPCPAPELRGGPKVFLFPPKPKDTLMISRTPEVTCVVVDVSHEDPEVKFNWYVDGVEVHNAKTKPREEQYASTYRVVSVLTVLHQDWLNGKEYKCKVSNKALPAPIEKTISKAKGQPREPQVYTLPPSREEMTKNQVSLTCLVKGFYPSDIAVEWESNGQPENNYKTTPPYLDSDGSFFLYSKLTVDKSRWQQGNVFSCSVMHEALHNHYTQESLSLSPGK
light 1: AVLTQTPSPVSAAVGGTVTISCQASQSVYNNNFLSWYQQKPGQRPKLLIYDASTLESGVPSRFSGSGSGTQFTLTISSVQCDDAATYYCLGGYDDHDNAFGGGTEVVVKRTVAAPSVFIFPPSDEQLKSGTASVVCLLNNFYPREAKVQWKVDNALQSGNSQESVTEQDSKDSTYSLSSTLTLSKADYEKHKVYACEVTHQGLSSPVTKSFNRGEC
heavy 2: QVQLVESGGGVVQPGGSLRLSCAASGFTFSNAWMHWVRQAPGKGLEWVAQIKDKSQNYATYVAESVKGRFTISRADSKNSIYLQMNSLKTEDTAVYYCRYVHYAAGYGVDIWGQGTTVTVSSASTKGPSVFPLAPSSKSTSGGTAALGCLVKDYFPEPVTVSWNSGALTSGVHTFPAVLQSSGLYSLSSVVTVPSSSLGTQTYICNVNHKPSNTKVDKKVEPKSCDKTHTCPPCPAPELRGGPKVFLFPPKPKDTLMISRTPEVTCVVVDVSHEDPEVKFNWYVDGVEVHNAKTKPREEQYASTYRVVSVLTVLHQDWLNGKEYKCKVSNKALPAPIEKTISKAKGQPREPQVYTLPPSRKEMTKNQVSLTCLVKGFYPSDIAVEWESNGQPENNYKTTPPYLDSDGSFFLYSKLTVDKSRWQQGNVFSCSVMHEALHNHYTQKSLSLSPGK
light 2: B1 light 2
notes: Bispecific IgG made by mixing two homomers under 2-MEA reduction; also called anti-delta GK-Fc antibody; delta GK-Fc×CD3
B3: H0000-SG115/GL4-k0a (antibody)
heavy: QVQLVQSGAEVKKPGASVKVSCKASGYTFTDYEMHWIRQPPGQGLEWIGAIDPKTGDTAYSQKFKGRVTLTADKSTSTAYMELSSLTSEDTAVYYCTRFYSYTYWGQGTLVTVSSASTKGPSVFPLAPSSKSTSGGTAALGCLVKDYFPEPVTVSWNSGALTSGVHTFPAVLQSSGLYSLSSVVTVPSSSLGTQTYICNVNHKPSNTKVDKKVEPKSCDKTHTCPPCPAPELRRGPKVFLFPPKPKDTLMISRTPEVTCVVVDVSHEDPEVKFNWYVDGVEVHNAKTKPREEQYNSTYRVVSVLTVLHQDWLNGKEYKCKVSNKGLPSSIEKTISKAKGQPREPQVYTLPPSREEMTKNQVSLTCLVKGFYPSDIAVEWESNGQPENNYKTTPPVLDSDGSFFLYSKLTVDKSRWQQGNVFSCSVLHEALHAHYTRKELSLSP
light: B1 light 2 with P28S, G94S, G96N, Q98H, Y101P
notes: Anti-GPC3 antibody with the SG115 constant region, which is both silent Fc and delta GK-Fc; also called anti-GPC3 silent Fc antibody; anti-GPC3 silent Fc and anti-delta GK-Fc antibody
B4: H0000-G1T3GK/GL4-k0a (antibody, human IgG1, kappa)
heavy: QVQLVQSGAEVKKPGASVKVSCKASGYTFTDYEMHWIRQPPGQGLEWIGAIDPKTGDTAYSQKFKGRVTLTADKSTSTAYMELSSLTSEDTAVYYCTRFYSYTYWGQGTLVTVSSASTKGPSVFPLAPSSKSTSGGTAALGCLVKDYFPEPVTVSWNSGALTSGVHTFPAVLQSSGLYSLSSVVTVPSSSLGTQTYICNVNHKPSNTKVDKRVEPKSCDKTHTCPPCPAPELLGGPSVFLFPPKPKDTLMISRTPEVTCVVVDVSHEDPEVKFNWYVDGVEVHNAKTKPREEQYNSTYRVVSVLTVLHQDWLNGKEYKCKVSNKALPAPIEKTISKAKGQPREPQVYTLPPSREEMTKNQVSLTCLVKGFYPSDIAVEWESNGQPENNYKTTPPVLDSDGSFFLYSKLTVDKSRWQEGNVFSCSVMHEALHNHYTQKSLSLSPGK
light: B1 light 2 with P28S, G94S, G96N, Q98H, Y101P
notes: Control antigen antibody with the same variable regions as m1 and a human IgG1 constant region carrying C-terminal GK; also called anti-GPC3 antibody with C-terminal addition of Gly-Lys; anti-GPC3 antibody having IgG1 constant region having C-terminal GK

Numbering of substitutions follows the chain as printed. Bounds are passed on as bounds.

The target in the experiment “H0000-SG115/GL4-k0a” is B3. Kind of experiment: SPR (Biacore T200), multi-cycle kinetics; anti-GPC3 antibody captured on engineered GPC3 CM4 chip, bispecific antibody as analyte at 15.6-1000 nM.
The experiment “H0000-G1T3GK/GL4-k0a” addresses B4. The description is as above.
For the next experiment, the target named is engineered GPC3 (Homo sapiens (Human), UniProt P51654 25-563). The experiment in a line: SPR (Biacore T200); capture of the antibody on an engineered GPC3 CM4 chip. In general terms: Surface plasmon resonance follows binding to a sensor surface in real time, without labels.
Chain of engineered GPC3 (P51654 other isoform, or with tags, fused parts or gaps limits assumed): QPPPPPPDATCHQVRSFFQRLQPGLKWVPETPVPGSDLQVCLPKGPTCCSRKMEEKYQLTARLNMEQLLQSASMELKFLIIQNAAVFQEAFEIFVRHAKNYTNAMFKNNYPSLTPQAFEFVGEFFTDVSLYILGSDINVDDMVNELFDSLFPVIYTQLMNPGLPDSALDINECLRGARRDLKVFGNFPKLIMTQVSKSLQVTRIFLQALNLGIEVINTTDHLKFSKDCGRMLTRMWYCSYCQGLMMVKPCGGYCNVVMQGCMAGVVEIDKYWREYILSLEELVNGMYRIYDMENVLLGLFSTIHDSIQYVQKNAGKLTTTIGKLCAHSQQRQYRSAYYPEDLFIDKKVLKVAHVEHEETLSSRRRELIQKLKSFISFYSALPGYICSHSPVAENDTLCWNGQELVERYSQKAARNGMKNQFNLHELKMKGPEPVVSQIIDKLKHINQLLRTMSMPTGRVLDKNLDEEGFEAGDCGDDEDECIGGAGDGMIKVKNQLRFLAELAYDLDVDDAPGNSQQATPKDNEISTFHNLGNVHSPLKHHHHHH

This note sets out measurements from patent US20220143094A1 (Chugai, published 2022).

The Kd is a measure of binding affinity in units of concentration. Higher therefore signals lower affinity. The term koff denotes the first-order rate constant of dissociation. Low values mean a long-lived complex, high ones a short-lived complex. The kon is the second-order rate constant of association. Low readings indicate slower complex formation, high ones faster complex formation.

Turning to B1, in the experiment with H0000-SG115/GL4-k0a, the dissociation constant Kd is less than 0.26 nM, the koff was less than 1e-05 s⁻¹ and the kon worked out at 38900 M⁻¹ s⁻¹. Moreover, the kon with H0000-G1T3GK/GL4-k0a came out at 2610 M⁻¹ s⁻¹.

In the case of B2, in the experiment with H0000-SG115/GL4-k0a, the affinity, expressed as Kd, was 41.7 nM; the koff was 0.00348 s⁻¹; the on-rate constant (kon) came to 83500 M⁻¹ s⁻¹.

Take B3: the binding result in the experiment with engineered GPC3 was “binds”.

Regarding B4, in the experiment with engineered GPC3, the binding result is listed as “binds”.
